Assays:
[1] = biological target: BotI-like toxin (Buthus occitanus tunetanus) (UniProt P01488); experiment: SPR
[2] = biological target: BotI-like toxin (Buthus occitanus tunetanus) (UniProt P01488)

Binder | Kd [1] [nM] | koff [1] [s⁻¹] | kon [1] [M⁻¹ s⁻¹] | neutralisation of the toxin's lethality in Swiss mice (i.c.v. injection after 1 h preincubation at 37°C); 2 or 4 molar excess of Nb: 50% neutralisation at 6 and 7 LD50 (LD50 of toxin (50% neutralised)) [2]
NbBotI-01 (VHH) VHH: QVQLQESGGGLVQPGGSLRLSCAASGFSFTVYYMSWVRQTPGKGLEWVSGINRDGSIIDYADSVKGRFTISRDNAENTLYLEMNSRKSEDTALNDCTPHVRGGRYRTRGQGTQVTVSS | 0.0953 | 0.000464 | 4.87e+06 | –
NbBotI-17 (VHH) VHH: QVQLQESGGGPVQAGGSLRLSCAASGFTDSNKNVHWFRQVPGKQCERVSTITSNGVTNYADSVKGRFTASRDNSKNTVYLQMNTLKTEDTAVYYCVSVYIWESIGPSQRCRGQGTQVTVSS | 4.72 | 0.0308 | 6.52e+06 | 7
